Laboratory results taken from patent US20260207718A1, “METHODS FOR TREATING LATE ONSET POMPE DISEASE IN PEDIATRIC PATIENTS” (Amicus Therapeutics, Inc., priority 2022, published 2026).
Entries after “also recorded” stand apart in the source; their conditions may differ. Read-outs that look alike come from different tables or passages of the source. Marks after values point to notes of the source that are not given here.

Columns and labels:
Gaa KO mice = assay: Single fiber analysis (LAMP1/LC3) of muscle fibers from Gaa KO mice; format: in vivo
Source text: FIG. 17 depicts co-immunofluorescent staining of LAMP1 (green) (see for example, “B”) and LC3 (red) (see, for example, “A”) in single fibers isolated from the white gastrocnemius of Gaa KO mice treated with a vehicle, alglucosidase alfa, or ATB200. “C” depicts clearance of autophagic debris and absence of enlarged lysosome. A minimum of 30 fibers were examined from each animal.
As a result, a significant portion of muscle fibers analyzed (36-60%) from ATB200-treated mice appeared normal or near-normal.

[1] = Thermostability assay using SYPRO Orange; format: physicochemical
Description: The stability of ATB200 in acidic or neutral pH buffers was evaluated in a thermostability assay using SYPRO Orange, as the fluorescence of the dye increases when proteins denature. […] As summarized in Table 10, the addition of miglustat increased the melting temperature (Tm) of ATB200 by nearly 10° C.

[2] = Case: pediatric atypical IOPD patient, PK of ATB200 and AT2221 after 1 year; format: in vivo, human
[3] = test system: pediatric subjects with late-onset Pompe disease; assay: ATB200-04 trial: safety in pediatric subjects with LOPD; format: in vivo, human; details: ERT-experienced subject, Cohort 2
Source text: This study includes subjects with Pompe disease except classic IOPD.
Safety assessments include monitoring of adverse events (AEs), clinical laboratory tests (chemistry, hematology, and urinalysis), physical examinations, vital signs, 12-lead electrocardiogram (ECGs), and detection of cipaglucosidase alfa antibodies.

CIMPR [4] = biological target: T1, CIMPR (Homo sapiens, UniProt P11717); assay: CIMPR affinity chromatography (bound vs unbound rhGAA by GAA activity); format: binding
Source text: Multiple batches of the rhGAA according to the disclosure were produced in shake flasks and in perfusion bioreactors using CHO cell line GA-ATB200, the product of which is referred to as “ATB200.” Weak anion exchange (“WAX”) liquid chromatography was used to fractionate ATB200 rhGAA according to terminal phosphate and sialic acid. Elution profiles were generated by eluting the ERT with increasing amount of salt. The profiles were monitored by UV (A280 nm).
To evaluate the ability of the conventional rhGAAs in MYOZYME® and LUMIZYME® to interact with the CIMPR, the two conventional rhGAA preparations were injected onto a CIMPR affinity column (which binds rhGAA having M6P groups) and the flow through collected. The bound material was eluted with a free M6 gradient. Fractions were collected in 96-well plate and GAA activity assayed by 4MU-α-glucosidase substrate. The relative amounts of unbound (flow through) and bound (M6P eluted) rhGAA were determined based on GAA activity and reported as the fraction of total enzyme. […] Indeed, only 27% of the rhGAA in MYOZYME® and 22% of the rhGAA in LUMIZYME® contained M6P that can be productive to target it to the CIMPR on muscle cells.

[5] = test system: normal and Pompe fibroblast cell lines; assay: Cellular uptake of rhGAA in fibroblasts; format: cell-based
Description: The relative cellular uptake of ATB200 and LUMIZYME® rhGAA were compared using normal and Pompe fibroblast cell lines. Comparisons involved 5-100 nM of ATB200 according to the disclosure with 10-500 nM conventional rhGAA product LUMIZYME®. After 16-hr incubation, external rhGAA was inactivated with TRIS base and cells were washed 3-times with PBS prior to harvest. Internalized GAA measured by 4MU-α-Glucoside hydrolysis and was graphed relative to total cellular protein and the results appear in FIGS. 11A-11C.
ATB200 was also shown to be efficiently internalized into cells. […] ATB200 saturates cellular receptors at about 20 nM, while about 250 nM of LUMIZYME® is needed to saturate cellular receptors.

[6] = ATB200-04 trial: population PK exposure matching of adolescents to adults; format: in vivo, human; parameters: AUC0-24, Mean / AUC0-24, Median / AUC0-24, P5 / AUC0-24, P95 / AUC0-24, Geo Mean: unit not given beside the values; details: for AUC0-24, Geo Mean / AUC0-24, Mean / AUC0-24, Median / AUC0-24, P5 / AUC0-24, P95: predicted
Source text: The ATB200-04 trial seeks to evaluate the safety and tolerability of cipaglucosidase alfa/miglustat co-administration.
Subjects have scheduled PK assessments at Day 1, Week 26, and Week 52 for plasma total GAA protein and miglustat.
Population PK parameters include clearance (CL) and volume of distribution (V), estimated from total GAA protein concentrations and miglustat concentrations in plasma.
Methods for Exposure Matching. Pediatric PK data from both clinical trials and expanded access programs were used for exposure matching to adult PK data. […] The previous base population PK models from cipaglucosidase alfa-atga and miglustat were rerun with the updated dataset. To account for longitudinal changes in body size for pediatric patients, the time-varying body weight was used to estimate the effects of body size on PK parameters in the population PK models. The effect of age at baseline on clearance was also evaluated in the PK models. Individual AUC0-24 and Cmax of cipaglucosidase alfa and miglustat were predicted from the PK empirical Bayes estimates (EBEs). The time-varying body weight and baseline age in pediatrics were used in the exposure prediction. PK exposures (AUC0-24 and Cmax) were predicted for each PK visit during the study; Day 1-baseline, Week 26, and Week 52. Additionally, there were unscheduled PK visits for some subjects.
Results for Adolescent Subjects. […] The dose may have been adjusted at a later visit for exposure matching. It should be noted however, that in the early stage of the study, all subjects were started at 20 mg/kg to evaluate safety.

CIMPR [7] = biological target: T1, CIMPR; assay: CIMPR plate binding assay
Description: In addition to having a greater percentage of rhGAA that can bind to the CIMPR, it is important to understand the quality of that interaction. LUMIZYME® and ATB200 receptor binding was determined using a CIMPR plate binding assay. Briefly, CIMPR-coated plates were used to capture GAA. Varying concentrations of rhGAA were applied to the immobilized receptor and unbound rhGAA was washed off. The amount of remaining rhGAA was determined by GAA activity. […] For LUMIZYME®, there is on average only 10% of molecules having a bis-phosphorylated N-glycan. In contrast, on average every rhGAA molecule in ATB200 has at least one bis-phosphorylated N-glycan.
N-glycan analysis via MALDI-TOF mass spectrometry confirmed that on average each ATB200 molecule contains at least one natural bis-M6P N-glycan structure.

[8] = adolescent Subject 2, 20 mg/kg, Week 52, 83.8 kg
[9] = adolescent Subject 3, 25 mg/kg, Week 52, 64.6 kg
[10] = adolescent Subject 4, 25 mg/kg, Week 64, 53.3 kg
[11] = adolescent Subject 5, 25 mg/kg, Week 52, 43.7 kg
[12] = adolescent Subject 6, 25 mg/kg, Week 52, 36.5 kg
[13] = adolescent Subject 7, 25 mg/kg, Week 52, 60.3 kg
[14] = adolescent Subject 8, 25 mg/kg, Week 72, 38.5 kg

T1 sequence (P11717 41-2491, species assumed): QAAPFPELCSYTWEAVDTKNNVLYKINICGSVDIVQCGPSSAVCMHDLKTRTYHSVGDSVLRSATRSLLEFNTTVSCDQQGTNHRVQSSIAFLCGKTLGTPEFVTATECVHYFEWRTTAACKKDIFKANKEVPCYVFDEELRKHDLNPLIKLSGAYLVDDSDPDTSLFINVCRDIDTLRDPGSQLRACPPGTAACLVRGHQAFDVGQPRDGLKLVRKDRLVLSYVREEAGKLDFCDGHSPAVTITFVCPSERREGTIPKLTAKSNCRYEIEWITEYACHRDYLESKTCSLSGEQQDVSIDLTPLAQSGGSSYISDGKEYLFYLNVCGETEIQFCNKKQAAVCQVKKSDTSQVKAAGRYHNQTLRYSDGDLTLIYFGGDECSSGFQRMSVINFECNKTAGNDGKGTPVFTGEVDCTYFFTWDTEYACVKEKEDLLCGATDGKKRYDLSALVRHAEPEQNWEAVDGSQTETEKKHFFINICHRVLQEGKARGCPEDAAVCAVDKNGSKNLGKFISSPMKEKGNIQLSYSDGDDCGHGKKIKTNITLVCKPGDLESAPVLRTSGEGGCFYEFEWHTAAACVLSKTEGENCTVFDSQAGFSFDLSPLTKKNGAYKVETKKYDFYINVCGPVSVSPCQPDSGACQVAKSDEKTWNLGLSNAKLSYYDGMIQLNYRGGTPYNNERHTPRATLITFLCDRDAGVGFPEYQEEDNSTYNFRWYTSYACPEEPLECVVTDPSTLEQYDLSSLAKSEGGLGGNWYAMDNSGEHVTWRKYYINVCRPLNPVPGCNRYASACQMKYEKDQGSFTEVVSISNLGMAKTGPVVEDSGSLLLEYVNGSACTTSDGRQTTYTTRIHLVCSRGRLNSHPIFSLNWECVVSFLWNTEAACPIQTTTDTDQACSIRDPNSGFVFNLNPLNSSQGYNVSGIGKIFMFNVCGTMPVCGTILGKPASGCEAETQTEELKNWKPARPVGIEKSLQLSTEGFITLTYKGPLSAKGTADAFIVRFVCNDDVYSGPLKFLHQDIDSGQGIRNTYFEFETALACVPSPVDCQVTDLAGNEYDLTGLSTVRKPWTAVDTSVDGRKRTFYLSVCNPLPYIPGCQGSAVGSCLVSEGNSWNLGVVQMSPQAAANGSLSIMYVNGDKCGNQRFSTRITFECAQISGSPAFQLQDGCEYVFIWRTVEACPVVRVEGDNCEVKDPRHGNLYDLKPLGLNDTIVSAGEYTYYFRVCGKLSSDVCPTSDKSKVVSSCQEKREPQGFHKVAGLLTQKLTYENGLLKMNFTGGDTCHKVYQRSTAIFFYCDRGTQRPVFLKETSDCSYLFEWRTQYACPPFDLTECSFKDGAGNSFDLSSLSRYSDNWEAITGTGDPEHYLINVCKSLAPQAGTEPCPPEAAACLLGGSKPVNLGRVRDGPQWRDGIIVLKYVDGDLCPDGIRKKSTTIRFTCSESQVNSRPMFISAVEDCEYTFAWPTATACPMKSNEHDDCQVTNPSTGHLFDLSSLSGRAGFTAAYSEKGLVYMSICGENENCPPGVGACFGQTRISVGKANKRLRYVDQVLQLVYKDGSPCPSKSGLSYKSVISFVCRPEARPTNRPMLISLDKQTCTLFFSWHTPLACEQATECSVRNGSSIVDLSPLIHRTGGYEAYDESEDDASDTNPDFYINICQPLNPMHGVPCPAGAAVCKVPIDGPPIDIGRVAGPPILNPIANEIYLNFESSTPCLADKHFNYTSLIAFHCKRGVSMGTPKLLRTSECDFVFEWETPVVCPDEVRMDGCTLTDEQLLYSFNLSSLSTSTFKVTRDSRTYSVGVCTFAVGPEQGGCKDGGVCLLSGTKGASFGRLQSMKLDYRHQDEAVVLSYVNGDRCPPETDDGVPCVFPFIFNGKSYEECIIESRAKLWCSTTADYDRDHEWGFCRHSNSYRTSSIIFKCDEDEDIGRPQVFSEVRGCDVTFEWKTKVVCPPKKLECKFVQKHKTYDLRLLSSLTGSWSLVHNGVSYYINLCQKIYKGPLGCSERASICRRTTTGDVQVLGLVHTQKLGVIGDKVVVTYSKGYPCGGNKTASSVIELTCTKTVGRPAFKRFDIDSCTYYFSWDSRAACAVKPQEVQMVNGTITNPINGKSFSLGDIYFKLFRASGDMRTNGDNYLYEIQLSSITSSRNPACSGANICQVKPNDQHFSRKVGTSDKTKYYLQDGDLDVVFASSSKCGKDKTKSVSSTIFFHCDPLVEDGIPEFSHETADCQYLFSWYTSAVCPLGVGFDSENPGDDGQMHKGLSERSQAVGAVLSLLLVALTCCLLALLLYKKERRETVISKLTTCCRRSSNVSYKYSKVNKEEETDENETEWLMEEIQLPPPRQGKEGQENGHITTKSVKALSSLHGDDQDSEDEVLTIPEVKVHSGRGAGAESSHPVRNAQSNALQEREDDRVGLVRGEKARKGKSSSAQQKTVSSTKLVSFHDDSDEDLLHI

Substance: ATB200: recombinant human acid α-glucosidase with high content of N-glycans bearing mono-M6P and bis-M6P, produced from GA-ATB200 CHO cell line
- Fibers with Autophagy Buildup (Gaa KO mice): 40-64%*
- Fibers with Normal or Near-normal Appearance (Gaa KO mice): 36-60%
- Lysosome Enlargement (Gaa KO mice; white gastrocnemius): dramatically decreased lysosome size; also recorded: Dramatic size
- Tm ([1]; pH 5.2): 67.3 °C
- Tm ([1]; pH 7.4): 56.2 °C
- increase of melting temperature (Tm) by addition of miglustat ([1]; pH 7.4): ~10 °C
- Tm ([1]; pH 7.4 + 10 μM miglustat): 61.6 °C
- Tm ([1]; pH 7.4 + 30 μM miglustat): 62.9 °C
- Tm ([1]; pH 7.4 + 100 μM miglustat): 66.0 °C
- ATB200 AUC ([2]; Adult (10th-90th percentile)): 1001 to 1924 µg·h/mL
- ATB200 Cmax ([2]; Adult (10th-90th percentile)): 223 to 363 µg/mL
- ATB200 AUC ([2]; Adult (median)): 1415 µg·h/mL
- ATB200 Cmax ([2]; Adult (median)): 294 µg/mL
- ATB200 AUC ([2]; patient with atypical IOPD, 12Y5M, 46.5 kg, ATB200 20 mg/kg + AT2221 195 mg biweekly for 1 year): 1257 µg·h/mL
- ATB200 Cmax ([2]; patient with atypical IOPD, 12Y5M, 20 mg/kg): 245 µg/mL
- investigator-assessed relatedness of anaphylaxis event (both episodes) [3]: definitely related
- rhGAA that bound to the CIMPR (CIMPR [4]): more than 70%
- rhGAA that bound to the CIMPR (CIMPR [4]; listed as ATB200 rhGAA): ≥ 70%
- concentration that saturates cellular receptors ([5]; 16-hr incubation): about 20 nM
- uptake efficiency constant (Kuptake) ([5]; 16-hr incubation, extrapolated, FIG. 11C): 2-3 nm
- internalization into normal and Pompe fibroblast cells ([5]; FIGS. 11A-11B): internalized to a greater degree than the conventional rhGAA product LUMIZYME®
- AUC0-24, geometric LSM Ratio adolescents to adults ([6]; 90% CI (81.96, 96.88)): 89.11
- Cmax, geometric LSM Ratio adolescents to adults ([6]; 90% CI (82.51, 104.69)): 92.94
- individual predicted AUC0-24 ([6]; adolescent Subject 1, 20 mg/kg, Week 52, 77.9 kg): 1396
- individual predicted AUC0-24 [6, 8]: 1315
- individual predicted Cmax [6, 8]: 277
- individual predicted AUC0-24 [6, 9]: 1318
- individual predicted Cmax [6, 9]: 305
- individual predicted AUC0-24 [6, 10]: 1472
- individual predicted Cmax [6, 10]: 294
- individual predicted AUC0-24 [6, 11]: 1175
- individual predicted Cmax [6, 11]: 240
- individual predicted AUC0-24 [6, 12]: 1047
- individual predicted Cmax [6, 12]: 222
- individual predicted AUC0-24 [6, 13]: 1269
- individual predicted Cmax [6, 13]: 273
- individual predicted AUC0-24 [6, 14]: 1138
- individual predicted Cmax [6, 14]: 229
- predicted AUC0-24 and Cmax for adolescents relative to adult 5th and 95th percentile range ([6]; adults N=100, adolescents N=8): well within the adult 5th and 95th percentile range
- AUC0-24, Geo Mean ([6]; Adolescents N=8): 1259
- AUC0-24, Mean ([6]; Adolescents N=8): 1266
- AUC0-24, Median ([6]; Adolescents N=8): 1292
- AUC0-24, P5 ([6]; Adolescents N=8): 1079
- AUC0-24, P95 ([6]; Adolescents N=8): 1446
- AUC0-24, Geo Mean ([6]; Adults N=100): 1413
- AUC0-24, Mean ([6]; Adults N=100): 1461
- AUC0-24, Median ([6]; Adults N=100): 1433
- AUC0-24, P5 ([6]; Adults N=100): 898
- AUC0-24, P95 ([6]; Adults N=100): 2162
- binding to CIMPR compared with LUMIZYME® (CIMPR [7]; CIMPR plate binding assay, FIG. 10A): bound to CIMPR significantly better than LUMIZYME®
- Kd (CIMPR [7]; M6P receptor plate binding assays): 2 to 4 nM
